# Legend:
# [1] = Specific activity with PNPB substrate, sodium cholate as bile-salt activator; assay type: biochemical; details: after HA-HPLC and SE-HPLC purification
# Protocol: Differences in functional properties are observed between rhBSSL-CHO and BSSL-MAM and from rhBSSL-OVI. The specific activity of rhBSSL-CHO is observed to be higher than that of the other forms of BSSL. The specific activities of BSSL-MAM and rhBSSL-OVI are only 80% of that of rhBSSL-CHO based on mass. Each sample is specifically purified by HA-HPLC and SE-HPLC before determination of specific activity. Specific activity is determined using 4-nitrophenyl ester butyric acid (PNPB) as a substrate for BSSL, and detection of the release of 4-nitrophenol. Briefly, a dilution series of rhBSSL (for example, from 20 to 160 ng activity/mL) is prepared in PBS with 0.1% BSA. 200 μl of these rhBSSL solutions is added to 25 μl of an activation solution containing 20 mM sodium cholate (as bile-salt activator) in PBS with 0.1% BSA. These solutions are preincubated in a spectrophotometer at 27° C. for 5 minutes. Just before measuring, 25 μl of a well-mixed substrate solution containing 5 mM PNPB in PBS-Tween is added. The formation of 4-nitrophenol can be detected by its absorbance at 400 nm and the increase in absorbance is measured during 90 seconds. The active amount of BSSL is determined using a standard curve of an rhBSSL reference standard.
# [2] = test system: preterm infants born before week 32 of gestational age; details: in vivo
# From the text: (§1) The adverse event (AE) reporting period in each study began upon administration of the first dose (Day 1) of investigational medication and ended at the Follow-up Visit (1 week±3 days after the last dose of study drug intake). All AEs that occurred in a patient during the adverse event reporting period were to be reported, whether or not the event was considered medication/product related. In addition, any known untoward event that occurred subsequent to the AE reporting period that the investigator assessed as possibly, probably, or definitely related to the investigational product were also to be reported as an AE.
# (§2) MedDRA dictionary version 10.0 was used to classify all AEs reported during either study by system organ class (SOC) and preferred term (PT). All summary tables included counts of patients with treatment-emergent adverse events (TEAEs). The assessment of TEAEs was made in each individual study. […] All TEAEs, treatment related TEAEs (definite, probable, and possible), SAEs, and TEAEs leading to withdrawal of study drug were summarized by MedDRA SOC, PT, and treatment. Both the incidence (proportion of patients) and number of each TEAE were summarized. Additionally, TEAEs were summarized by maximum severity (mild, moderate, or severe). An overall summary of TEAEs was presented by treatment sequence and total and presented the number (%) of patients with TEAEs for each treatment sequence allocated to (1) BSSL only; (2) Placebo only; (3) Both BSSL and placebo; and (4) Neither Treatment.
# [3] = test system: preterm infants born before week 32 of gestational age; assay: Treatment-emergent adverse events, studies BVT.BSSL-020/-021
# From the text: as §1, §2
# [4] = Safety Analysis Set, rhBSSL N = 61
# [5] = TEAE, Safety Analysis Set, rhBSSL N = 61
molecule,measurement,setting,value
"rhBSSL: recombinant human bile-salt-stimulated lipase, SEQ ID. NO. 1, expressed from recombinant CHO cells; used in both clinical trials (protein, listed as Homo sapiens) AKLGAVYTEGGFVEGVNKKLGLLGDSVDIFKGIPFAAPTKALENPQPHPGWQGTLKAKNFKKRCLQATITQDSTYGDEDCLYLNIWVPQGRKQVSRDLPVMIWIYGGAFLMGSGHGANFLNNYLYDGEEIATRGNVIVVTFNYRVGPLGFLSTGDANLPGNYGLRDQHMAIAWVKRNIAAFGGDPNNITLFGESAGGASVSLQTLSPYNKGLIRRAISQSGVALSPWVIQKNPLFWAKKVAEKVGCPVGDAARMAQCLKVTDPRALTLAYKVPLAGLEYPMLHYVGFVPVIDGDFIPADPINLYANAADIDYIAGTNNMDGHIFASIDMPAINKGNKKVTEEDFYKLVSEFTITKGLRGAKTTFDVYTESWAQDPSQENKKKTVVDFETDVLFLVPTEIALAQHRANAKSAKTYAYLFSHPSRMPVYPKWVGADHADDIQYVFGKPFATPTGYRPQDRTVSKAMIAYWTNFAKTGDPNMGDSAVPTHWEPYTTENSGYLEITKKMGSSSMKRSLRTNFLRYWTLTYLALPTVTDQEATPVPPTGDSEATPVPPTGDSETAPVPPTGDSGAPPVPPTGDSGAPPVPPTGDSGAPPVPPTGDSGAPPVPPTGDSGAPPVPPTGDSGAPPVPPTGDSGAPPVPPTGDAGPPPVPPTGDSGAPPVPPTGDSGAPPVTPTGDSETAPVPPTGDSGAPPVPPTGDSEAAPVPPTDDSKEAQMPAVIRF",Specific activity compared with the other forms of BSSL,[1],higher
same,"Urinary tract infection, n (%) of Patients",[2],1 (1.6%)
same,"Patients who died, n (%) of Patients",[3]; [4],0
same,"Patients with any TEAE, n (%) of Patients",[3]; [4],29 (47.5%)
same,"Patients with any serious TEAE, n (%) of Patients",[3]; [4],0
same,"Patients with any severe TEAE, n (%) of Patients",[3]; [4],1 (1.6%)
same,"Anemia neonatal, n (%) of Patients",[3]; [5],2 (3.3%)
same,"Anemia, n (%) of Patients",[3]; [5],3 (4.9%)
same,"Bradycardia, n (%) of Patients",[3]; [5],1 (1.6%)
same,"Cardiac murmur, n (%) of Patients",[3]; [5],4 (6.6%)
same,"Dermatitis diaper, n (%) of Patients",[3]; [5],13 (21.3%)
same,"Hypokalemia, n (%) of Patients",[3]; [5],3 (4.9%)
same,"Thrombocythemia, n (%) of Patients",[3]; [5],0
same,Tolerability when added to infant formula or pasteurized breast milk,"[3]; preterm infants, combined analysis",well tolerated
